Assay results: article PMC12191924, “A new naphthalene-based fluorogenic substrate for cytochrome P450 4A11” (Biochemical Journal, 2025)

Experiments:
CYP4A11 = molecular target: T1, CYP4A11 (Homo sapiens, UniProt Q02928); assay: Probing 6-methoxy-2-naphthoic acid as a P450 substrate (data not shown); format: biochemical
T1 sequence (Q02928 5-519): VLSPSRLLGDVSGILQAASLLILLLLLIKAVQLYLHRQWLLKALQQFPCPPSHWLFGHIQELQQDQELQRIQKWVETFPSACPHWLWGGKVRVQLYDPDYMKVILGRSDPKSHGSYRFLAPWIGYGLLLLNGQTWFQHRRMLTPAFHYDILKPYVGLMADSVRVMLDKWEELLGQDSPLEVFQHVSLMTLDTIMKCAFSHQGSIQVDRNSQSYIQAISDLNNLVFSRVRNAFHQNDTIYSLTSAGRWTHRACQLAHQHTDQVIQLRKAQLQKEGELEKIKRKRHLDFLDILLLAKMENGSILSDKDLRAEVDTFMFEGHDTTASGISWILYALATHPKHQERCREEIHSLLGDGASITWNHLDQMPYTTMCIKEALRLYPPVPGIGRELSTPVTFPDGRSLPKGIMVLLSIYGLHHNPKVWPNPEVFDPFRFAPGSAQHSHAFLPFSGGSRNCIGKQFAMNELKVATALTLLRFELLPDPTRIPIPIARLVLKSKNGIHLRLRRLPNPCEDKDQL
Excerpt: (§1) Thus, we decided to probe the derivatives of methoxynaphthalene as CYP4A11 substrates. The simplest potential methoxynaphthalene-based P450 substrate is 6-methoxy-2-naphthoic acid, a close analog of naproxen, which is known to be metabolized by P450 enzymes. […] This molecule is apparently too small to be a CYP4A11 substrate. Thus, we searched commercially available derivatives of methoxynaphthalene to find a compound with a longer carboxylic acid chain substituent in the naphthalene ring. This search identified MONACRA (Figure 1) as a potential CYP4A11 substrate. […] We attempted to design a fluorimetric assay of its metabolism suitable for high-throughput studies in HLM.

CYP1A2 = molecular target: T2, CYP1A2 (Homo sapiens, UniProt P05177); format: biochemical
T2 sequence (P05177 1-516): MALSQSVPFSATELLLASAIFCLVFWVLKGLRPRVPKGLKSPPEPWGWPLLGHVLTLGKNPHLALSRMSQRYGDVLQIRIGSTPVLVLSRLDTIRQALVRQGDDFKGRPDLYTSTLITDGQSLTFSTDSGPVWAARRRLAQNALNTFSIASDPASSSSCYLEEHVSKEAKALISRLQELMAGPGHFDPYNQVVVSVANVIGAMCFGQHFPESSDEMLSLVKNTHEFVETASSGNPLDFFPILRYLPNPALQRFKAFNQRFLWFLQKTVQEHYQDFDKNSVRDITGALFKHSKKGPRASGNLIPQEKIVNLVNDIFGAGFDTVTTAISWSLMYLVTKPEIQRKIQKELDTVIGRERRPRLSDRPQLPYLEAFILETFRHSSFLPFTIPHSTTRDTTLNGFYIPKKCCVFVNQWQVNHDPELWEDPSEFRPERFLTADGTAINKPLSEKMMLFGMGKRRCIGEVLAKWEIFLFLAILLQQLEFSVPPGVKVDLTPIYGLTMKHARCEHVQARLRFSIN
Excerpt: as §1

[1] = substrate: COc1ccc2cc(C=CC(=O)O)ccc2c1; assay: MONACRA demethylation by recombinant CYP1A2 in Supersomes, high-throughput fluorimetric assay; format: biochemical, human; settings: other: CYP1A2 Supersomes; substrate inhibition equation; ± = confidence interval P=0.05
Protocol: (§2) Based on these observations, we developed a high-throughput automated assay applicable for studying SSPs of MONACRA metabolism by microsomal P450 enzymes. In this procedure, the incubation mixtures containing an NADPH-generating system and various substrate concentrations are placed in a multiwell plate and preincubated at 30°C in a thermostated shaker. The reaction is started by adding microsomal suspension to the final concentration of 0.3–1 mg/ml of microsomal protein or 0.02–0.1 µM of recombinant P450 enzymes in Supersomes. Following the incubation for 20 min at 30°C, the reaction is quenched by adding trichloroacetic acid (final concentration […]). After supplementing the wells with Na-glycine buffer (pH 10.4, final concentration 2.1 M), the plates are subjected to scanning the fluorescence spectra with excitation at 375 nm. This assay, which is described in detail in Materials and Methods, allows reliable detection of the concentrations of HONACRA as low as 0.1 µM.
(§3) We used the high-throughput activity assay described above to probe MONACRA metabolism by 16 human microsomal P450 enzymes, namely CYP1A2, CYP2A6, CYP2B6, CYP2C8, CYP2C9, CYP2C19, CYP2D6, CYP2E1, CYP2J2, CYP3A4, CYP3A5, CYP4A11, CYP4F2, CYP4F3A, CYP4F3B, and CYP4F12. […]

[2] = substrate: COc1ccc2cc(C=CC(=O)O)ccc2c1; assay: MONACRA demethylation by recombinant CYP2C8 in Supersomes, high-throughput fluorimetric assay; format: biochemical, human; settings: other: CYP2C8 Supersomes; Michaelis–Menten fit
Protocol: as §2, §3

## COc1ccc2cc(C(=O)O)ccc2c1 [6-methoxy-2-naphthoic acid]
CYP4A11
  metabolism by CYP4A11: not metabolized by CYP4A11
CYP1A2
  O-demethylation by P450 enzymes: undergoes O-demethylation catalyzed predominantly by CYP1A2

B1: CYP1A2 (Homo sapiens) (protein)
chain: ALSQSVPFSATELLLASAIFCLVFWVLKGLRPRVPKGLKSPPEPWGWPLLGHVLTLGKNPHLALSRMSQRYGDVLQIRIGSTPVLVLSRLDTIRQALVRQGDDFKGRPDLYTSTLITDGQSLTFSTDSGPVWAARRRLAQNALNTFSIASDPASSSSCYLEEHVSKEAKALISRLQELMAGPGHFDPYNQVVVSVANVIGAMCFGQHFPESSDEMLSLVKNTHEFVETASSGNPLDFFPILRYLPNPALQRFKAFNQRFLWFLQKTVQEHYQDFDKNSVRDITGALFKHSKKGPRASGNLIPQEKIVNLVNDIFGAGFDTVTTAISWSLMYLVTKPEIQRKIQKELDTVIGRERRPRLSDRPQLPYLEAFILETFRHSSFLPFTIPHSTTRDTTLNGFYIPKKCCVFVNQWQVNHDPELWEDPSEFRPERFLTADGTAINKPLSEKMMLFGMGKRRCIGEVLAKWEIFLFLAILLQQLEFSVPPGVKVDLTPIYGLTMKHARCEHVQARLRFSIN
notes: purchased Gentest (Supersomes), now a part of Discovery Life Sciences; CYP1A2 is not in the lot list; host or cells: insect cells, recombinant baculovirus
[1]
  Km: 161 ± 34 µM
  kcat: 0.733 ± 0.1 s⁻¹

B2: CYP2C8 (Homo sapiens) (protein)
chain: MEPFVVLVLCLSFMLLFSLWRQSCRRRKLPPGPTPLPIIGNMLQIDVKDICKSFTNFSKVYGPVFTVYFGMNPIVVFHGYEAVKEALIDNGEEFSGRGNSPISQRITKGLGIISSNGKRWKEIRRFSLTTLRNFGMGKRSIEDRVQEEAHCLVEELRKTKASPCDPTFILGCAPCNVICSVVFQKRFDYKDQNFLTLMKRFNENFRILNSPWIQVCNNFPLLIDCFPGTHNKVLKNVALTRSYIREKVKEHQASLDVNNPRDFIDCFLIKMEQEKDNQKSEFNIENLVGTVADLFVAGTETTSTTLRYGLLLLLKHPEVTAKVQEEIDHVIGRHRSPCMQDRSHMPYTDAVVHEIQRYSDLVPTGVPHAVTTDTKFRNYLIPKGTTIMALLTSVLHDDKEFPNPNIFDPGHFLDKNGNFKKSDYFMPFSAGKRICAGEGLARMELFLFLTTILQNFNLKSVDDLKNLNTTAVTKGIVSLPPSYQICFIPV
notes: purchased Gentest (Huntsville, AL), now a part of Discovery Life Sciences lot 81760; host or cells: insect cells, recombinant baculovirus
[2]
  Km: 456 ± 188 µM
  kcat: 0.0267 ± 0.0117 s⁻¹
